Experiments:
[1] = tested on: 2LTRZFP-GFP (designed six-finger zinc finger protein fused to GFP); test: BLI; conditions: BLI (BLItz, SA tips): 10 mM Tris-HCl pH 7.5, 90 mM KCl, 1 mM MgCl2, 90 uM ZnSO4, 5 mM DTT, 0.5 mM PMSF, temperature not stated; IN: 1:5 IN reaction buffer …
[2] = target: HIV-1 integrase (IN) (HIV-1) (UniProt P12497); test: BLI; conditions: BLI (BLItz, SA tips): 10 mM Tris-HCl pH 7.5, 90 mM KCl, 1 mM MgCl2, 90 uM ZnSO4, 5 mM DTT, 0.5 mM PMSF, temperature not stated; IN: 1:5 IN reaction buffer …
[3] = tested on: 2LTRZFP-GFP (designed six-finger zinc finger protein fused to GFP); test: competition ELISA; conditions: BLI (BLItz, SA tips): 10 mM Tris-HCl pH 7.5, 90 mM KCl, 1 mM MgCl2, 90 uM ZnSO4, 5 mM DTT, 0.5 mM PMSF, temperature not stated, IN: 1:5 IN reaction buffer …
[4] = tested on: 2LTRZFP-GFP (designed six-finger zinc finger protein fused to GFP); test: competition BLI; conditions: BLI (BLItz, SA tips): 10 mM Tris-HCl pH 7.5, 90 mM KCl, 1 mM MgCl2, 90 uM ZnSO4, 5 mM DTT, 0.5 mM PMSF, temperature not stated; IN: 1:5 IN reaction buffer …

AAATCTCTAGCAGTACTGGATGGGCTAATT (double strand) [ds2LTR (30 bp HIV-1 2-LTR circle junction)]
Kd [1]: 40 nM
Kd [2]: 75 nM
binding signal (nm BLI signal (0.55 without 2LTRZFP-GFP)) [2]: 0.47
binding signal [3]: 62 % inhibition
binding signal (nm BLI signal (1.2 without competitor)) [4]: 0.45

TGACAGTGCTAGCGTATCATCTAGTCGACG (double strand) [dsNeg (30 bp irrelevant DNA)]
inhibition of binding to immobilized ds2LTR ([3]; 2 uM dsNeg as competitor against immobilized ds2LTR, OD 1.0 vs 1.3 uninhibited): 22 % inhibition
binding signal (nm BLI signal (1.2 without competitor)) [4]: 1

Source: publication PMC8001305
